B1: PA-PB1(1-686) heterodimer (construct 1) (complex)
chain 1: […]
chain 2: MDVNPTLLFLKVPAQNAISTTFPYTGDPPYSHGTGTGYTMDTVNRTHQYSEKGKWTTNTETGAAQLNPIDGPLPEDNEPSGYAQTDCVLEAMAFLEESHPGIFENSCLETMEVVQQTRVDRLTQGRQTYDWTLNRNQPAATALANTIEVFRSNGLIANESGRLIDFLKDVIESMDKEEMEITTHFQRKRRVRDNMTKKMVTQRTIGKKKQRVNKRSYLIRALTLNTMTKDAERGKLKRRAIATPGMQIRGFVYFVETLARSICEKLEQSGLPVGGNEKKAKLANVVRKMMTNSQDTELSFTITGDNTKWNENQNPRMFLAMITYITKNQPEWFRNILSIAPIMFSNKMARLGKGYMFESKRMKLRTQIPAEMLASIDLKYFNESTRKKIEKIRPLLIDGTASLSPGMMMGMFNMLSTVLGVSILNLGQKKYTKTTYWWDGLQSSDDFALIVNAPNHEGIQAGVDRFYRTCKLVGINMSKKKSYINRTGTFEFTSFFYRYGFVANFSMELPSFGVSGINESADMSIGVTVIKNNMINNDLGPATAQMALQLFIKDYRYTYRCHRGDTQIQTRRSFELKKLWEQTRSKAGLLVSDGGPNLYNIRNLHIPEVCLKWELMDEDYQGRLCNPLNPFVSHKEIESVNNAVVMPAHGPAKSMEYDAVATTHSWIPKRNRSILNTSQRGILEDE
B2: RanBP5 (residues 1-1115) co-expressed in the PA-PB1(1-686)-RanBP5 polyprotein (construct 21) (natural protein)
chain: MPEDQVGKLEATENTISAMAAAAAEQQQFYLLLGNLLSPDNVVRKQAEETYENIPGQSKITFLLQAIRNTTAAEEARQMAAVLLRRLLSSAFDEVYPALPSDVQTAIKSELLMIIQMETQSSMRKKVCDIAAELARNLIDEDGNNQWPEGLKFLFDSVSSQNVGLREAALHIFWNFPGIFGNQQQHYLDVIKRMLVQCMQDQEHPSIRTLSARATAAFILANEHNVALFKHFADLLPGFLQAVNDSCYQNDDSVLKSLVEIADTVPKYLRPHLEATLQLSLKLCGDTSLNNMQRQLALEVIVTLSETAAAMLRKHTNIVAQTIPQMLAMMVDLEEDEDWANADELEDDDFDSNAVAGESALDRMACGLGGKLVLPMIKEHIMQMLQNPDWKYRHAGLMALSAIGEGCHQQMEGILNEIVNFVLLFLQDPHPRVRYAACNAVGQMATDFAPGFQKKFHEKVIAALLQTMEDQGNQRVQAHAAAALINFTEDCPKSLLIPYLDNLVKHLHSIMVLKLQELIQKGTKLVLEQVVTSIASVADTAEEKFVPYYDLFMPSLKHIVENAVQKELRLLRGKTIECISLIGLAVGKEKFMQDASDVMQLLLKTQTDFNDMEDDDPQISYMISAWARMCKILGKEFQQYLPVVMGPLMKTASIKPEVALLDTQDMENMSDDDGWEFVNLGDQQSFGIKTAGLEEKSTACQMLVCYAKELKEGFVEYTEQVVKLMVPLLKFYFHDGVRVAAAESMPLLLECARVRGPEYLTQMWHFMCDALIKAIGTEPDSDVLSEIMHSFAKCIEVMGDGCLNNEHFEELGGILKAKLEEHFKNQELRQVKRQDEDYDEQVEESLQDEDDNDVYILTKVSDILHSIFSSYKEKVLPWFEQLLPLIVNLICPHRPWPDRQWGLCIFDDVIEHCSPASFKYAEYFLRPMLQYVCDNSPEVRQAAAYGLGVMAQYGGDNYRPFCTEALPLLVRVIQSADSKTKENVNATENCISAVGKIMKFKPDCVNVEEVLPHWLSWLPLHEDKEEAVQTFNYLCDLIESNHPIVLGPNNTNLPKIFSIIAEGEMHEAIKHEDPCAKRLANVVRQVQTSGGLWTECIAQLSPEQQAAIQELLNSA

Tests used:
[1] = target: B2; test: co-purification (nickel resin, heparin, SEC); settings: partners not purified
[2] = target: B1; test: SEC-SAXS; settings: both partners purified

Row | Binder | binding result [1] | stoichiometry N [2]
1 | B1 | binds | –
2 | B2 | – | 1

Reference: paper PMC4837377 (Scientific Reports, 2016)
